# Measurements taken from article PMC11252911 (Proceedings of the National Academy of Sciences of the …, 2024).
# Experiments:
# [1] = molecular target: Pwl2-3 (Magnaporthe oryzae); assay: ITC
# [2] = molecular target: Pwl2-2 (Magnaporthe oryzae); assay: ITC
substance,measurement,setting,value
HMA domain of OsHIPP43 (residues 26 to 101) (from UniProt Q8LJL3 26-101) (domain or fragment),Kd,[1],35 nM
same,Kd,[2],141 nM
